According to article PMC4459106:

Substrate: CC(C)C[C@H](NC(=O)[C@H](CCCCN)NC(=O)[C@H](C)NC(=O)[C@@H]1CCCN1C(=O)[C@H](CO)NC(=O)[C@H](CCCNC(=N)N)NC(=O)[C@@H]1CCCN1)C(=O)N[C@@H](CO)C(=O)N[C@@H](Cc1ccccc1)C(=O)N[C@@H](CCC(N)=O)C(=O)N[C@@H](Cc1ccccc1)C(=O)N1CCC[C@H]1C(=O)N[C@@H](CO)C(=O)O
Assay: purified protein, by the assay type
Type: biochemical, rat (rat ERK2 numbering used throughout)
Conditions: other: phosphorylation by 2 nM ppERK2, 1.6–400 μM Elk387-399, 500 μM γ-32P ATP, 25 mM HEPES pH 7.5, 10 mM MgCl2, 30 °C, Michaelis-Menten fit
Protocol: Kinase assays to determine the Michelis-Menten parameters for the phosphorylation of Elk387-399by ppERK2 were performed in 100 μL volumes at 30 °C in a buffer containing 25 mM HEPES pH 7.5, 50 mM KCl, 0.1 mM EDTA, 0.1 mM EGTA, 2 mM DTT, 10 mM MgCl2, and 40 μg/mL BSA. […] The reaction mixture was incubated for 10 minutes at 30 °C before initiation with 500 μM γ-^32P ATP (specific activity of 1 × 10^15 cpm/mol). Aliquots (10 μL) were spotted onto P81 filter papers at fixed times. The filter papers were washed three times for 15 minutes with 50 mM phosphoric acid to remove excess ATP and washed once with acetone for drying. The amount of phosphate incorporated into Elk387-399was determined by the associated counts per minute on a scintillation counter (Packard 1500) at a σ value of 2.

B1: ppERK2 (Rattus norvegicus) (protein)
chain: MAAAAAAGPEMVRGQVFDVGPRYTNLSYIGEGAYGMVCSAYDNLNKVRVAIKKISPFEHQTYCQRTLREIKILLRFRHENIIGINDIIRAPTIEQMKDVYIVQDLMETDLYKLLKTQHLSNDHICYFLYQILRGLKYIHSANVLHRDLKPSNLLLNTTCDLKICDFGLARVADPDHDHTGFLTEYVATRWYRAPEIMLNSKGYTKSIDIWSVGCILAEMLSNRPIFPGKHYLDQLNHILGILGSPSQEDLNCIINLKARNYLLSLPHKNKVPWNRLFPNADSKALDLLDKMLTFNPHKRIEVEQALAHPYLEQYYDPSDEPIAEAPFKFDMELDDLPKEKLKELIFEETARFQPGYRS
notes: made in house
B1 was tested, and the Km was 13.4 ± 1.1 µM and the kcat was 0.56 ± 0.1 s⁻¹.
